This passage reports % inhibition of IgE binding results from patent publication US20020173625A1.

The test addresses grass pollen allergic patients' IgE antibodies. In words: ELISA competition; sera of 20 patients preadsorbed with 10 ug/ml rPhl p 6; competitor: plate-bound rPhl p 6.

B1: recombinant Phl p 6 (protein, timothy grass, UniProt P43215 23-132, looked up)
chain: GKATTEEQKLIEDVNASFRAAMATTANVPPADKYKTFEAAFTVSSKRNLADAVSKAPQLVPKLDEVYNAAYNAADHAAPEDKYEAFVLHFSEALRIIAGTPEVHAVKPGA
Take B1: the % inhibition of IgE binding was determined as 80%.
